Values quoted from earlier work as cited in article PMC5979445.

Target: Calmodulin (UniProt P0DP23)

**Q.** Which Kd does the source give for “TRPV1 CaM binding domain (from UniProt Q8NER1)” here?
**A.** Its Kd is 54 nM.
